The labels stand for the following.
B1: Azoarcus group I ribozyme (parent)
chain: GUGCCUUGCGCCGGGAAACCACGCAAGGGAUGGUGUCAAAUUCGGCGAAACCUAAGCGCCCGCCCGGGCGUAUGGCAACGCCGAGCCAAGCUUCGGCGCCUGCGCCGAUGAAGGUGUAGAGACUAGACGGCACCCACCUAAGGCAAACGCUAUGGUGAAGGCAUAGUCCAGGGAGUGGCGAAAGUCACACAAACCGG

In the series the parent is B1. The experiment in a line: reverse-splicing fitness (ratio to wild type); higher = more active; in vitro selection; Mg2+ level not given. Put shortly:
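An in vitro group I ribozyme library with randomized positions was T7-transcribed and gel-purified. In triplicate, 10 pmol RNA in EPPS pH 7.5 was reacted with 50 pmoles of a 30-nt RNA substrate for 1 h at 37 °C across several added MgCl2 levels (1–48 mM), then stopped with EDTA. Products were reverse transcribed from a substrate-complementary primer, PCR-amplified and sequenced (HiSeq 4000). Fitness is a variant's read proportion after selection over that before, normalised to wild type.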
As for C82A A111C A120U A145C C150A C169U U176G, the reverse-splicing fitness came out at 0.00263.

Regarding C82A A111C A120U A145G C150U C169G U176A, the reverse-splicing fitness stood at 0.00597.

Turning to C82A A111C A120U A145G C150U C169G U176C, the reverse-splicing fitness was 0.00509.

C82A A111C A120U A145G C150U C169G U176G: the reverse-splicing fitness is 0.00299.

With C82A A111C A120U A145C, the reverse-splicing fitness came to 0.0196.

Consider C82A A111C A120U A145U, for which the reverse-splicing fitness was determined as 0.0205.

Regarding C82A A111C A120U A145G, the reverse-splicing fitness turned out to be 0.023.

As for C82A A111C A120G C150A, the reverse-splicing fitness was 0.00933.

Consider C82A A111C A120G C150U, for which the reverse-splicing fitness stood at 0.0107.

For the variant C82A A111C A120G C150G, the reverse-splicing fitness amounted to 0.00723.

On to C82A A111C A120G C150G C169A, for which the reverse-splicing fitness stood at 0.0097.

As to C82A A111C A120G C150G C169U, the reverse-splicing fitness amounted to 0.00833.

In the case of C82A A111C A120G C150G C169G, the reverse-splicing fitness turned out to be 0.00748.

As to C82A A111C A120U A145U C150U, the reverse-splicing fitness worked out at 0.0169.

Take C82A A111C A120U A145U C150G: the reverse-splicing fitness is 0.00626.

As for C82A A111C A120U A145U C150A, the reverse-splicing fitness was determined as 0.00598.

Consider C82A A111C A120G A145U C150U C169G U176G, for which the reverse-splicing fitness was determined as 0.00522.

As to C82A A111C A120G A145U C150U C169G U176A, the reverse-splicing fitness is 0.012.

On to C82A A111C A120G A145U C150U C169G U176C, for which the reverse-splicing fitness stood at 0.014.

For C82A A111C A120U A145G C150U C169U U176C, the reverse-splicing fitness turned out to be 0.00469.

As to C82A A111C A120U A145G C150U C169U U176A, the reverse-splicing fitness came to 0.00523.

As for C82A A111C A120U A145G C150U C169U U176G, the reverse-splicing fitness was determined as 0.00315.

On to C82A A111C A120U C150G C169U U176G, for which the reverse-splicing fitness was 0.00331.

On to C82A A111C A120U C150G C169U U176A, for which the reverse-splicing fitness amounted to 0.00407.

For C82A A111C A120U C150G C169U U176C, the reverse-splicing fitness came out at 0.00486.

Regarding C82A A111C A120G A145U C169G U176A, the reverse-splicing fitness came out at 0.0102.

For C82A A111C A120G A145U C169G U176G, the reverse-splicing fitness stood at 0.00481.

On to C82A A111C A120G A145U C169G U176C, for which the reverse-splicing fitness worked out at 0.012.

In the case of C82A A111C A120U A145C C169G U176C, the reverse-splicing fitness was found to be 0.00316.

With C82A A111C A120U A145C C169G U176A, the reverse-splicing fitness was found to be 0.00292.

Turning to C82A A111C A120U A145C C169G U176G, the reverse-splicing fitness turned out to be 0.00255.

As to C82A A111C A120U A145C C169A, the reverse-splicing fitness worked out at 0.00286.

Consider C82A A111C A120U A145C C169G, for which the reverse-splicing fitness was 0.00295.

On to C82A A111C A120U A145C C169U, for which the reverse-splicing fitness was 0.00399.

Consider C82A A111C A120G C150G C169A U176C, for which the reverse-splicing fitness is 0.00996.

Turning to C82A A111C A120G C150G C169A U176G, the reverse-splicing fitness is 0.00659.

In the case of C82A A111C A120G C150G C169A U176A, the reverse-splicing fitness was 0.0102.

As for C82A A111C A120G A145U C150U C169A U176G, the reverse-splicing fitness came out at 0.00604.

As for C82A A111C A120U C150A C169U U176C, the reverse-splicing fitness is 0.00458.

As for C82A A111C A120U C150A C169U U176G, the reverse-splicing fitness worked out at 0.00284.

As for C82A A111C A120U C150A C169U U176A, the reverse-splicing fitness was determined as 0.00806.

C82A A111C A120U A145G C150A U176G: the reverse-splicing fitness was 0.00381.

On to C82A A111C A120U A145G C150A U176C, for which the reverse-splicing fitness is 0.00799.

Consider C82A A111C A120U A145G C150A U176A, for which the reverse-splicing fitness amounted to 0.00754.

Consider C82A A111C A120U A145U C169U U176G, for which the reverse-splicing fitness is 0.002.

Consider C82A A111C A120U A145U C169U U176A, for which the reverse-splicing fitness was 0.00262.

On to C82A A111C A120U A145U C169U U176C, for which the reverse-splicing fitness was 0.00253.

For the variant C82A A111C A120U C150U C169A U176C, the reverse-splicing fitness is 0.00323.

In the case of C82A A111C A120U C150U C169A U176G, the reverse-splicing fitness stood at 0.00324.

On to C82A A111C A120U C150U C169A U176A, for which the reverse-splicing fitness was found to be 0.00537.

As to C82A A111C A120U, the reverse-splicing fitness stood at 0.0221.

As to C82A A111C A120U C169A U176C, the reverse-splicing fitness came out at 0.0037.

With C82A A111C A120U C169A U176A, the reverse-splicing fitness was 0.00417.

As for C82A A111C A120U C150A C169A U176G, the reverse-splicing fitness was found to be 0.00277.

C82A A111C A120U C150A C169A U176C: the reverse-splicing fitness was determined as 0.00418.

For C82A A111C A120U C150A C169A U176A, the reverse-splicing fitness turned out to be 0.00546.

For the variant C82A A111C A120G C150U C169G U176G, the reverse-splicing fitness came to 0.00594.

As to C82A A111C A120G C150U C169G U176A, the reverse-splicing fitness came to 0.0134.

Take C82A A111C A120G C150U C169G U176C: the reverse-splicing fitness came to 0.0169.

For the variant C82A A111C A120U C150A C169G U176A, the reverse-splicing fitness is 0.00598.

With C82A A111C A120U C150A C169G U176C, the reverse-splicing fitness turned out to be 0.00395.

With C82A A111C A120U C150A C169G U176G, the reverse-splicing fitness was 0.00295.

C82A A111C A120U A145U C150U C169A: the reverse-splicing fitness came out at 0.00321.

On to C82A A111C A120U A145U C150U C169G, for which the reverse-splicing fitness was found to be 0.00466.

On to C82A A111C A120U A145U C150U C169U, for which the reverse-splicing fitness is 0.00409.

For C82A A111C A120U A145C C150G U176G, the reverse-splicing fitness turned out to be 0.00265.

In the case of C82A A111C A120U A145C C150G U176A, the reverse-splicing fitness was 0.00333.

On to C82A A111C A120U A145C C150G U176C, for which the reverse-splicing fitness was 0.00415.

Regarding C82A A111C A120U A145U C150A C169A U176A, the reverse-splicing fitness was 0.00258.

Take C82A A111C A120U A145U C150A C169A U176C: the reverse-splicing fitness is 0.00334.

Turning to C82A A111C A120U A145U C150A C169A U176G, the reverse-splicing fitness was 0.00272.

Consider C82A A111C A120U C150U C169G, for which the reverse-splicing fitness came to 0.00537.

With C82A A111C A120U C150U C169A, the reverse-splicing fitness was 0.0052.

For C82A A111C A120U C150U C169U, the reverse-splicing fitness is 0.00638.

Regarding C82A A111C A120U A145G C150A C169U, the reverse-splicing fitness came out at 0.00559.

In the case of C82A A111C A120U A145G C150A C169A, the reverse-splicing fitness is 0.00708.

In the case of C82A A111C A120U A145G C150A C169G, the reverse-splicing fitness is 0.00577.

C82A A111C A120G A145U C150U C169G: the reverse-splicing fitness is 0.00909.

Regarding C82A A111C A120G A145U C150U C169U, the reverse-splicing fitness came to 0.00924.

As to C82A A111C A120G C150A C169U U176G, the reverse-splicing fitness was found to be 0.00682.

Take C82A A111C A120G C150A C169U U176A: the reverse-splicing fitness was found to be 0.018.

Regarding C82A A111C A120G C150A C169U U176C, the reverse-splicing fitness stood at 0.018.

Regarding C82A A111C A120U A145C C150G C169A U176G, the reverse-splicing fitness was determined as 0.00275.

C82A A111C A120U A145C C150G C169A U176C: the reverse-splicing fitness was determined as 0.00263.

The values are drawn from the RNAGym collection of RNA variant scans (doi:10.1093/molbev/msab373).
